B1: ASCL3 WT (dsDNA)
DNA 1: TCGAAAAATAAAATAAAATAAAACAT
DNA 2: ATGTTTTATTTTATTTTATTTTTCGA
B2: NOS1 -27G>A (rs1195040887) (dsDNA)
DNA 1: TGTTTCCTGATAAAAAAAAAAAATGG
DNA 2: CCATTTTTTTTTTTTATCAGGAAACA
B3: GRIN1 WT (dsDNA)
DNA 1: TGGAGGGGGACAAAGACAGGGTGGTG
DNA 2: CACCACCCTGTCTTTGTCCCCCTCCA
B4: GRIN1 -34G>A (rs1402667001) (dsDNA)
DNA 1: TGGAGGAGGACAAAGACAGGGTGGTG
DNA 2: CACCACCCTGTCTTTGTCCTCCTCCA
B5: NOS1 WT (dsDNA)
DNA 1: TGTTTCCTGATAGAAAAAAAAAATGG
DNA 2: CCATTTTTTTTTTCTATCAGGAAACA

These molecules were tested against TATA-binding protein (TBP) (Homo sapiens) (UniProt P20226) (assay: EMSA (kinetic, kd/ka)). Settings: 20 mM HEPES-KOH pH 7.6, 5 mM MgCl2, 70 mM KCl, 1 mM DTT, 100 ug/ml BSA, 0.01% NP-40, 5% 'XYZ' (so in the source), 25 C; TBP 0.4 nM; gel 5% PAGE Tris-glycine pH 8.3 ….
Sequence of TATA-binding protein (TBP) (Homo sapiens) (P20226 whole entry): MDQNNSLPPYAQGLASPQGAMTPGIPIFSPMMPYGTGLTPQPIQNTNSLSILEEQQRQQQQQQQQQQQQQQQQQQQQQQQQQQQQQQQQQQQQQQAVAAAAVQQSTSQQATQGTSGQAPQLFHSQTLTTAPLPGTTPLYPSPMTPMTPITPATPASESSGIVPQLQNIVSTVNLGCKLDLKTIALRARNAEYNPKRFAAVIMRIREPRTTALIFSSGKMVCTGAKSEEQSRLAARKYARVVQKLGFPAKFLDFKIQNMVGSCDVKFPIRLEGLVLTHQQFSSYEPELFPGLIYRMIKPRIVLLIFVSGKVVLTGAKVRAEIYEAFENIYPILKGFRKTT

Row | Molecule | Kd [µM]
1 | TCGAAAAATAAAACAAAATAAAACAT (double strand) [ASCL3 -45T>C (rs1049743008)] | 0.017

What follows are molecules tested against TATA-binding protein (TBP) (Homo sapiens, UniProt P20226 1-339) (assay: EMSA (kinetic, kd/ka); 20 mM HEPES-KOH pH 7.6, 5 mM MgCl2, 70 mM KCl, 1 mM DTT, 100 ug/ml BSA, 0.01% NP-40, 5% 'XYZ' (so in the source), 25 C; TBP 0.4 nM; gel 5% PAGE Tris-glycine pH 8.3, 10 C). Settings: protein: recombinant; label: 32P; blunt.
Sequence of TATA-binding protein (TBP) (P20226 whole entry): as the sequence (P20226 whole entry) above

Row | Molecule | Kd [µM]
2 | B1 | 0.012 ± 0.005
3 | B2 | 0.059 ± 0.009
4 | B3 | 0.32 ± 0.05
5 | B4 | 0.2 ± 0.05
6 | B5 | 0.07 ± 0.02

— paper PMC9167820, “An experimental study of the effects of SNPs in the TATA boxes of the GRIN1, ASCL3 and NOS1 genes on interactions with the TATA-binding protein”
